Test results taken from paper PMC7031110 (Cell, 2014).

Target: CaMKIIα (UniProt P11275 1-478)
Assay: fluorescence polarisation

Sequence of CaMKIIα (P11275 whole entry): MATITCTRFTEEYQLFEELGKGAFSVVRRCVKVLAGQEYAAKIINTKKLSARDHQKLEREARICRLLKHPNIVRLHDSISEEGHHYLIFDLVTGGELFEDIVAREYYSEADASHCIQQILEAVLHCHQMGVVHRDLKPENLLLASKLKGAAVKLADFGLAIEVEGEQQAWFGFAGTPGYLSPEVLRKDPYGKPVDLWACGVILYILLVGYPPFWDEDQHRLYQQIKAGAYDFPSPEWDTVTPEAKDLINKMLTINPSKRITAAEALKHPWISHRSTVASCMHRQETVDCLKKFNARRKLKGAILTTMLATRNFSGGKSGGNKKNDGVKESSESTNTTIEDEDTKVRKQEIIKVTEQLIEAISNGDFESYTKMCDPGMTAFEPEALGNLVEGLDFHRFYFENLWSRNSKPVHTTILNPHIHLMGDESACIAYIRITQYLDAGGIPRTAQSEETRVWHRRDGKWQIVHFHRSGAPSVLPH

TVGKFYATFLIQEYFR [IQ peptide TVGKFYATFLIQEYFR of Cav1.2/Cav1.3]
Kd: 31 ± 7 nM
